Assay: yeast display, Sf9 membrane polyspecificity reagent, FACS + sequencing; frameworks hold sequencing errors
Summary of the method: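 A synthetic nanobody library was expressed on Saccharomyces cerevisiae BJ5465 by galactose induction for 36–48 hours. The library was stained for 1 hour at 4 °C with 10% biotinylated, detergent-solubilized Sf9 membrane reagent and enriched with streptavidin microbeads before FACS. Low and high (top ~1%) gates were set on anti-HA fluorescence for expression and streptavidin fluorescence for reagent binding, and each polyreactivity label reflects the gate of origin.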

Row | Sequence | polyreactivity (PSR sort gate)
1 | QVQLVESGGGLVQAGGSLRLSCAASGSTFFIYAMGWYRQAPGKERELVAAITWRGGTTYYADSVKGRFTISRDNAKNTVYLQMNSLKPEDTAVYYCNADPVDYANIVYYYDYNYWGQGTQVTVSS | low polyreactivity
2 | QVQLVESGGGLVQAGGSLRLSCAASGSTFFIYTMGWYRQAPGKEREFVAAISWTGGRTYYADSVKGRFTISRDNAKYTVYLQMNSLIPEDTPVYYCAALYKYSSYDYWGQGTQVTVSS | high polyreactivity
3 | QVQLVESGGGLVQAGGSLRLSCAASGSTFFKYAMGWYRQAPGKERELVAAISYSGGSTYYADSVKGRFTISRDNAKNTVYLQMNSLKPVDTAVYYCAARVQNRYRPYYYWGQGTQVTVSS | high polyreactivity
4 | QVQLVESGGGLVQAGGSLRLSCAASGSTFFLYAMGWYRQAPGKERELVAAISTTGGSTNYADSVKGRFTISRDNAKNTVYLQMNSLKPEDTAVYYCAAGPSAQSIYDHWGQGTQVTVSS | low polyreactivity
5 | QVQLVESGGGLVQAGGSLRLSCAASGSTFFLYAMGWYRQAPGKERELVASITDGGSTNYADSVKGRFTISRDNAKNTVYLQMNSLKPEDTAVYYCAKDYIHFSHKYDYWGQGTQVTVSS | low polyreactivity
6 | QVQLVESGGGLVQAGGSLRLSCAASGSTFFLYVRGWYRQAPGKERELVAAITSGGRTYYADSVKGRFTISRDNAKNTVYLQMNSLKPEDTAVYNCAADVRRVRVGKYDYWGQGTQVTVSS | high polyreactivity
7 | QVQLVESGGGLVQAGGSLRLSCAASGSTFFNNAMGWYRQAPGKERELVAAITGGGGRTYYADSVKGRFTISRDNAKNTVYLQMNSLKPEDTAVYYCAAVPRRSYGGYPYYYWGQGTQVTVSS | low polyreactivity
8 | QVQLVESGGGLVQAGGSLRLSCAASGSTFFPNAMGWDRQAPGKERELVAAITRSDDDTYYADSVKGRFTISRVHAKNTVYLQMNCLKPEDTAVYYCAADGTSTDSPSWPGYEYWGQGTQVTVSS | low polyreactivity
9 | QVQLVESGGGLVQAGGSLRLSCAASGSTFFPNGMGWYRQAPGKERELVAAITQDGGSTYYADSVKGRFTISRDNAKNTVYLQMNSLKPEDTAVYYCNADYFVWYIGRVFSRYGYWGQGTQVTVSS | low polyreactivity
10 | QVQLVESGGGLVQAGGSLRLSCAASGSTFFPYAMGWYRQAPGKERELVAAIRWSGGRTYYADSVKGRFTISRDNAKNTVYLQMNRLKPEDTAVYYCNAGRYKYTDDYWGQGTQVTVSS | high polyreactivity
11 | QVQLVESGGGLVQAGGSLRLSCAASGSTFFPYAMGWYRQAPGKERELVAAIRWSGGRTYYADSVKGRFTISRDNAKNTVYLQMNSLNPEDTAVYYCAAAKYLDYDYWGQGTQVTVSS | high polyreactivity
12 | QVQLVESGGGLVQAGGSLRLSCAASGSTFFPYAMGWYRQAPGKERELVAGISSDGGTYYADSVKGRFTISRDNAKNTVYLQMNSLKPEDTAVYYCAALQADRDRYPEFDLMDYWGQGTQVTVSS | low polyreactivity
13 | QVQLVESGGGLVQAGGSLRLSCAASGSTFFRNAMGWYRQAPGKERELVAGITSGVTTYYADSVKGRFTISRDNAKNTVYLQMNSLKPEDTAVYYCAARRTGYRLRKSDYWGQGTQVTVSS | high polyreactivity
14 | QVQLVESGGGLVQAGGSLRLSCAASGSTFFRYTMGWYRQAPGKERELVAAISWSGGSTYYADSVKGRFTISRDNAKNTVYLQMNSLKPEDTAVYYCAAVYEWDAVKWVDVDMDYWGQGTQVTVSS | low polyreactivity
15 | QVQLVESGGGLVQAGGSLRLSCAASGSTFFRYTMGWYRQAPGKERELVAAITSGGGTDYADSVKGRFTISRDNGKNTVYLQMNSLKPDDTAVYYCAVILSWRDYYLYWRGSWRDDYWGQGTQVSVSS | low polyreactivity
16 | QVQLVESGGGLVQAGGSLRLSCAASGSTFFTNAMGWYRQAPGKERELVATITWSGGSTYADSVKGRFTISRDNAKNTVYLQMNSLKPEDTAVFYCAAESSSYWGDQGGALWLYDYWGQGTQVTVSS | low polyreactivity
17 | QVQLVESGGGLVQAGGSLRLSCAASGSTFFTNVMGWYRQAPGKERELVADISSGGDTNYADSVKGRFTISRDNAKNTVYLQMNSLKPEDTAVYYCAVDPNVDYELHGFFFSFDYWGQGTQVTVSS | low polyreactivity
18 | QVQLVESGGGLVQAGGSLRLSCAASGSTFFTYAMGWYRQAPGKERELVAAISWSGGTTYYSDSVKWRFTISRDYAKNTDYLQMNSLKPEDTAGYYCASDRDGILKANDYWGQGTQVTVSS | low polyreactivity
19 | QVQLVESGGGLVQAGGSLRLSCAASGSTFFYNVMGWYRQAPGKERELVAAITSSGGGTYYADSVKGRFTISRDNAKNTVYLQMNSLKPEDTAVYYCAKPVWLRDYRHGGRFGYWGQGTQVTVSS | low polyreactivity
20 | QVQLVESGGGLVQAGGSLRLSCAASGSTFFYYAMGWYRQAPGKERAFVAAISSSVGTTYYADSVKGRFTISRDNAKNTVYLQMNRLKPVDTAVYYCAKASSATRYVQLRQDYDYWGQGTQVTVSS | low polyreactivity
21 | QVQLVESGGGLVQAGGSLRLSCAASGSTFFYYTMGWYIQAPGKERELVADITRGGGTTYYADSVKGRFTISRDNAKNTVYLQMNSLKPEDTAVYYCNAPYPNARYWTGWGYYYWGQGTQVTVSS | high polyreactivity
22 | QVQLVESGGGLVQAGGSLRLSCAASGSTFGANAMGWYRQAPGKERELVATISSGGRTYYADSVKGRFTISRDNAKNTVYLQMNSLKPEDTAVYYCNAGADYTYVYISVYVLYDYWGQGTQVTVSS | low polyreactivity

Row | Sequence | polyreactivity (PSR sort gate)
23 | QVQLVESGGGLVQAGGSLRLSCAASGSTFGANAMGWYRQAPGKERELVAVITWNDGSTYYADSVKGRFTISRDNAKNTVYLQMNSLKPEDTAVYYCAAEYADSWSAFDWNYYYWVQGTQVTVSS | high polyreactivity
24 | QVQLVESGGGLVQAGGSLRLSCAASGSTFGAYAMGWSRKAPGKERELVAAISRRGGSTYYADSVKGRFTISRDNAKNTVYLQMNSLKPEDTAVYYCNAVGTRVDGEHYYWGQGTQVTVSS | high polyreactivity
25 | QVQLVESGGGLVQAGGSLRLSCAASGSTFGAYAMGWSRQAPGKERELVAAISKRGGSTYYADSVKGRFTISRDNAKNTVYLQMNSLKPEDTAVYYCATDHFSPTYGYWGQGTQVTVSS | low polyreactivity
26 | QVQLVESGGGLVQAGGSLRLSCAASGSTFGAYAMGWYRQAPGKEREFVAAISGGGDGTYADSVKGRFTISRDNAKNTVYLQMNSLKPEDTAVYYCAAEDVPYDREDYWGQGTQVTVSS | low polyreactivity
27 | QVQLVESGGGLVQAGGSLRLSCAASGSTFGDYSMGWYRQAPGKERELVAAISRGGSTYYADSVKGRFTISRDNAKNTVYLQMNSLKPEDTAVYYCNNDVGYSASPDGSTFDYWGQGTQVTVSS | low polyreactivity
28 | QVQLVESGGGLVQAGGSLRLSCAASGSTFGENAMGWYRQAPGKERELVAGINSTGGSTYYADSVKGRFTISRDNAKNTVSLQMNSLKPEDTAVYYCAAGDWYSGNTSHFYYWGQGTQVTVSS | low polyreactivity
29 | QVQLVESGGGLVQAGGSLRLSCAASGSTFGEYAMGWYRQAPGKERELVAAITSSGGSTYYADSVKGRFTISRDNAKNTVYLQMNSLKPEDTAVYYCAADWDYPYDEAVSKDIDYDYWGQGTQVTVSS | low polyreactivity
30 | QVQLVESGGGLVQAGGSLRLSCAASGSTFGEYAMGWYRQAPGKERELVAGITSGGSTNYADSVKGRFTISRDNAKNTVYLQMNSLKPEDTAVYYCNARFYGSVDYWGLGTQVTVSS | low polyreactivity
31 | QVQLVESGGGLVQAGGSLRLSCAASGSTFGFNAMGWYRQAPGKEREFVAAITRSGGSTYYADSVKGRFTISRDNAKNTVYLQMNSLKPEDTAVYYCAKRRYFYSQWVRAFDYWGQGTQVTVSS | high polyreactivity
32 | QVQLVESGGGLVQAGGSLRLSCAASGSTFGFYAMGWYRQAPGKERELVAAISGRGGSTYYADSVKGRFTISRDNAKNTVYLQMNSLKPEDTAVYYCAAKYYGEMYYWGQGTQVTVSS | low polyreactivity
33 | QVQLVESGGGLVQAGGSLRLSCAASGSTFGFYAMGWYRQAPGKERELVAAITSGDITYADSVKGRFTISRDNAKNTVYLQMNSLKPEDTAVYYCAASGPYSYDWGQGTQVTVSS | low polyreactivity
34 | QVQLVESGGGLVQAGGSLRLSCAASGSTFGGNAMGWYRQAPGKERELVAAISSGGTTNYADSVKGRFTISRDNAKNTVDLQMNSLKPEDTAVYYCNKPHRWPQAGYGYWGQGTQVTVSS | high polyreactivity
35 | QVQLVESGGGLVQAGGSLRLSCAASGSTFGGNDMGWYRQAPGKERELVAAISSGTSTNYADSVKGRFTISRDNAKNTVYLQMNSLKPEDTAVYYCNAGFWYRRTYDYWGQGTQVTVSS | low polyreactivity
36 | QVQLVESGGGLVQAGGSLRLSCAASGSTFGGNGMGWYRQAPGKEREFVATITWRSGSTYYADSVKGRFTISRDKAKNTVYLKMNILKPEDSAVYYCAKYTSSRRNTWYYYWGQGTEVTVSS | high polyreactivity
37 | QVQLVESGGGLVQAGGSLRLSCAASGSTFGGSAMGWYRQAPGKERELVAAISKSGGSTYYADSVKGRFTISRDNAKNTVYLQMNSLKPEDTAVYYCNAPYKRSPYNYWGQGTQVTVSS | high polyreactivity
38 | QVQLVESGGGLVQAGGSLRLSCAASGSTFGGYAMGWYIQAPGKERELVADISRRVGSTYYADSVKGRFTISRDNAKNTVYLQMNSLKPEDTAVYYCNVPRIVIISGPSSPFRYYWGQGTQVTVSS | high polyreactivity
39 | QVQLVESGGGLVQAGGSLRLSCAASGSTFGGYAMGWYRQAPAKERELVAAISTSGGNTYYADSVKGRFTISRDNAKNTVYLQMNRLKPEDTAVYYCARDRVSWGGQDSWGQGTQVSVSS | high polyreactivity
40 | QVQLVESGGGLVQAGGSLRLSCAASGSTFGGYAMGWYRQAPGKERELVAAISGSGVRTYYADSEKGRFTISRDNAKNTVYLQMNSLQPEDTAVYYCAKRVRYPGDRYYYWGQGTQVTVSS | high polyreactivity
41 | QVQLVESGGGLVQAGGSLRLSCAASGSTFGGYAMGWYRQAPGKERELVAGITISVGSTYYADSVKGRFTISRDNAKNTVYLQMNSLKPEDTAVYYCAADGLSWYNYWGQGTQVTVSS | high polyreactivity
42 | QVQLVESGGGLVQAGGSLRLSCAASGSTFGGYVMGWYRQAPGKERELVATITQGDGSTYYADSVKGRFTISRDNAKNTVYLQMNSLKPEDTAVYYCAAYGWYDLYYWEYDYWGQGTQVTVSS | high polyreactivity
43 | QVQLVESGGGLVQAGGSLRLSCAASGSTFGHYAMGWYRQAPGKERELVAAISWSGGSTSYADSVKGRFTISRDNAKNTVYLQMNSLKPEDTAVYYCNKRQEWFHFPYTRVYYWGQGTQLTVSS | low polyreactivity

Source: the nanobody polyreactivity screen of Harvey et al. (2022)
